# Laboratory results: publication PMC8368996, “Interactions between AMOT PPxY motifs and NEDD4L WW domains function in HIV-1 release” (The Journal of Biological Chemistry, 2021)
# Tested on: full-length NEDD4L
# Test: FP binding of Alexa Fluor-tagged recombinant AMOT1-300 to full-length recombinant NEDD4L
# Method: A labeled peptide (GGG-ALEXA488) was added to AMOT1-300 (which carried a sortase tag) by transpeptidation with sortase. Typical reactions contained 10 to 50 μM AMOT1-300, 30 to 150 μM GGG-ALEXA488 peptide and 20 μM sortase enzyme in the reaction buffer (50 mM Tris [pH 7.5], 150 mM NaCl and 10 mM CaCl2). Reactions were allowed to proceed at either room temperature or 4 °C until the reaction was complete (typically 1–4 h). AMOT1-300–ALEXA488 was then purified by ion-exchange chromatography (SP HiTrap) as described above.
# Each dilution series was performed at least in triplicate. […] The mean Kd values are reported as mean ± SEM.
molecule,measurement,setting,value
"AMOT1-300: Alexa Fluor 488-tagged recombinant AMOT construct (residues 1–300) spanning all three PPxY motifs, labeled by sortase transpeptidation (protein, GGG-ALEXA488 peptide added by transpeptidation with sortase; left off: His, end not stated, state not stated | sortase tag, end not stated, kept, Alexa Fluor 488-tagged recombinant AMOT construct (residues 1–300) spanning all three PPxY motifs, labeled by sortase transpeptidation) MRNSEEQPSGGTTVLQRLLQEQLRYGNPSENRSLLAIHQQATGNGPPFPSGSGNPGPQSDVLSPQDHHQQLVAHAARQEPQGQEIQSENLIMEKQLSPRMQNNEELPTYEEAKVQSQYFRGQQHASVGAAFYVTGVTNQKMRTEGRPSVQRLNPGKMHQDEGLRDLKQGHVRSLSERLMQMSLATSGVKAHPPVTSAPLSPPQPNDLYKNPTSSSEFYKAQGPLPNQHSLKGMEHRGPPPEYPFKGMPPQSVVCKPQEPGHFYSEHRLNQPGRTEGQLMRYQHPPEYGAARPAQDISLPL",fold tighter binding than the isolated AMOT PPxY1-NEDD4L WW3 complex,AMOT1-300-full-length NEDD4L vs PPxY1-WW3,1.5 fold
same,"apparent dissociation constant, AMOT1-300 with full-length NEDD4L","Fig. 3C/E, FP, Alexa Fluor 488-tagged AMOT1-300, full isotherm not sampled because of limited solubility of full-length NEDD4L",2.7 ± 0.8 µM
